The text below walks through data of IntAct's records for PubMed 31515488.

First the molecules themselves.
B1: Isoform 1 of Aminoacylase-1 (Homo sapiens), Q03154-1 (parent)
chain: MTSKGPEEEHPSVTLFRQYLRIRTVQPKPDYGAAVAFFEETARQLGLGCQKVEVAPGYVVTVLTWPGTNPTLSSILLNSHTDVVPVFKEHWSHDPFEAFKDSEGYIYARGAQDMKCVSIQYLEAVRRLKVEGHRFPRTIHMTFVPDEEVGGHQGMELFVQRPEFHALRAGFALDEGIANPTDAFTVFYSERSPWWVRVTSTGRPGHASRFMEDTAAEKLHKVVNSILAFREKEWQRLQSNPHLKEGSVTSVNLTKLEGGVAYNVIPATMSASFDFRVAPDVDFKAFEEQLQSWCQAAGEGVTLEFAQKWMHPQVTPTDDSNPWWAAFSRVCKDMNLTLEPEIMPAATDNRYIRAVGVPALGFSPMNRTPVLLHDHDERLHEAVFLRGVDIYTRLLPALASVPALPSDS
partner: B1 chain
B2: Alpha-taxilin (Homo sapiens), P40222 (parent)
chain: MKNQDKKNGAAKQSNPKSSPGQPEAGPEGAQERPSQAAPAVEAEGPGSSQAPRKPEGAQARTAQSGALRDVSEELSRQLEDILSTYCVDNNQGGPGEDGAQGEPAEPEDAEKSRTYVARNGEPEPTPVVNGEKEPSKGDPNTEEIRQSDEVGDRDHRRPQEKKKAKGLGKEITLLMQTLNTLSTPEEKLAALCKKYAELLEEHRNSQKQMKLLQKKQSQLVQEKDHLRGEHSKAVLARSKLESLCRELQRHNRSLKEEGVQRAREEEEKRKEVTSHFQVTLNDIQLQMEQHNERNSKLRQENMELAERLKKLIEQYELREEHIDKVFKHKDLQQQLVDAKLQQAQEMLKEAEERHQREKDFLLKEAVESQRMCELMKQQETHLKQQLALYTEKFEEFQNTLSKSSEVFTTFKQEMEKMTKKIKKLEKETTMYRSRWESSNKALLEMAEEKTVRDKELEGLQVKIQRLEKLCRALQTERNDLNKRVQDLSAGGQGSLTDSGPERRPEGPGAQAPSSPRVTEAPCYPGAPSTEASGQTGPQEPTSARA
partner: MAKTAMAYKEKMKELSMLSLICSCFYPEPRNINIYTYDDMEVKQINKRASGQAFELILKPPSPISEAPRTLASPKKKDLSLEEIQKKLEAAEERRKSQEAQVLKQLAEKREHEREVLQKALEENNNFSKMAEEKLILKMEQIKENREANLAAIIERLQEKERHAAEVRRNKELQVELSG
B3: Protein PALS1 (Homo sapiens), Q8N3R9 (parent)
chain: MTTSHMNGHVTEESDSEVKNVDLASPEEHQKHREMAVDCPGDLGTRMMPIRRSAQLERIRQQQEDMRRRREEEGKKQELDLNSSMRLKKLAQIPPKTGIDNPMFDTEEGIVLESPHYAVKILEIEDLFSSLKHIQHTLVDSQSQEDISLLLQLVQNKDFQNAFKIHNAITVHMNKASPPFPLISNAQDLAQEVQTVLKPVHHKEGQELTALLNTPHIQALLLAHDKVAEQEMQLEPITDERVYESIGQYGGETVKIVRIEKARDIPLGATVRNEMDSVIISRIVKGGAAEKSGLLHEGDEVLEINGIEIRGKDVNEVFDLLSDMHGTLTFVLIPSQQIKPPPAKETVIHVKAHFDYDPSDDPYVPCRELGLSFQKGDILHVISQEDPNWWQAYREGDEDNQPLAGLVPGKSFQQQREAMKQTIEEDKEPEKSGKLWCAKKNKKKRKKVLYNANKNDDYDNEEILTYEEMSLYHQPANRKRPIILIGPQNCGQNELRQRLMNKEKDRFASAVPHTTRSRRDQEVAGRDYHFVSRQAFEADIAAGKFIEHGEFEKNLYGTSIDSVRQVINSGKICLLSLRTQSLKTLRNSDLKPYIIFIAPPSQERLRALLAKEGKNPKPEELREIIEKTREMEQNNGHYFDTAIVNSDLDKAYQELLRLINKLDTEPQWVPSTWLR
partner: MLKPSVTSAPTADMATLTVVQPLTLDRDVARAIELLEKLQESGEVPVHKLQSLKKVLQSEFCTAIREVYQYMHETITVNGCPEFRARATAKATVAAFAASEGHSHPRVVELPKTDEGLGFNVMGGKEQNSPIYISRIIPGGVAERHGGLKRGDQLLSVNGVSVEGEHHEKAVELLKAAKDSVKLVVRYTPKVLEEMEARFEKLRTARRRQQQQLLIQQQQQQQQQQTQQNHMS
B4: Calcium-binding and coiled-coil domain-containing protein 2 (Homo sapiens), Q13137 (parent)
chain: MEETIKDPPTSAVLLDHCHFSQVIFNSVEKFYIPGGDVTCHYTFTQHFIPRRKDWIGIFRVGWKTTREYYTFMWVTLPIDLNNKSAKQQEVQFKAYYLPKDDEYYQFCYVDEDGVVRGASIPFQFRPENEEDILVVTTQGEVEEIEQHNKELCKENQELKDSCISLQKQNSDMQAELQKKQEELETLQSINKKLELKVKEQKDYWETELLQLKEQNQKMSSENEKMGIRVDQLQAQLSTQEKEMEKLVQGDQDKTEQLEQLKKENDHLFLSLTEQRKDQKKLEQTVEQMKQNETTAMKKQQELMDENFDLSKRLSENEIICNALQRQKERLEGENDLLKRENSRLLSYMGLDFNSLPYQVPTSDEGGARQNPGLAYGNPYSGIQESSSPSPLSIKKCPICKADDICDHTLEQQQMQPLCFNCPICDKIFPATEKQIFEDHVFCHSL
partner: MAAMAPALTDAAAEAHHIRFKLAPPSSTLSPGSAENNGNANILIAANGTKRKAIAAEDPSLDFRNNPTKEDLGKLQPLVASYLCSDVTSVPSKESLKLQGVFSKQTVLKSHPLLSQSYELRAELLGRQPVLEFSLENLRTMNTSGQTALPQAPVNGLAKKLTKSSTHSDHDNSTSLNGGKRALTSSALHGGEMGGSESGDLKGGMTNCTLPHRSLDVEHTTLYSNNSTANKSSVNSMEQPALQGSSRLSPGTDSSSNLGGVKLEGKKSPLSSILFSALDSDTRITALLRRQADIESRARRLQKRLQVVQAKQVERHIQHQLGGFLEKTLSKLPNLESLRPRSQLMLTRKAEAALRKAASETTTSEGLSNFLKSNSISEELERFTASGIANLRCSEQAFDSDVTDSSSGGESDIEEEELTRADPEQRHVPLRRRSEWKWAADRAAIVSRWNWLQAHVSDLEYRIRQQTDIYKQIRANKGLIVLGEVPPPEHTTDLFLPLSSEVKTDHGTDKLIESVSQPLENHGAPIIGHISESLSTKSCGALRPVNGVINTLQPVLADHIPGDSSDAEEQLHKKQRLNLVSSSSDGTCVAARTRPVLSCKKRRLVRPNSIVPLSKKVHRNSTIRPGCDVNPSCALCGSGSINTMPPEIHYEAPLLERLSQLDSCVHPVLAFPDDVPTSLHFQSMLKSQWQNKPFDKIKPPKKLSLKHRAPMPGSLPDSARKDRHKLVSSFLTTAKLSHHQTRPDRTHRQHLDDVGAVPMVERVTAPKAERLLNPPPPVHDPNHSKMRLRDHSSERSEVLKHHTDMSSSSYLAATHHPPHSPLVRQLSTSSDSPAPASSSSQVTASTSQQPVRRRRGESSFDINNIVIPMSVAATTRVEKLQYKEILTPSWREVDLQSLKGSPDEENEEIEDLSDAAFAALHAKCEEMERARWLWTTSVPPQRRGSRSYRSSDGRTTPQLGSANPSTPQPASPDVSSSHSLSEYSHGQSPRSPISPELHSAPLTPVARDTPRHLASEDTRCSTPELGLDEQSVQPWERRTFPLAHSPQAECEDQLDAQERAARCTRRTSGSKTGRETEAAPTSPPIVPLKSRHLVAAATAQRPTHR
B5: Ornithine decarboxylase antizyme 3 (Homo sapiens), Q9UMX2 (parent)
chain: MPCKRCRPSVYSLSYIKRGKTRNYLYPIWSPYAYYLYCYKYRITLREKMLPRCYKSITYKEEEDLTLQPRSCLQCSESLVGLQEGKSTEQGNHDQLKELYSAGNLTVLATDPLLHQDPVQLDFHFRLTSQTSAHWHGLLCDRRLFLDIPYQALDQGNRESLTATLEYVEEKTNVDSVFVNFQNDRNDRGALLRAFSYMGFEVVRPDHPALPPLDNVIFMVYPLERDVGHLPSEPP
B6: Paraneoplastic antigen Ma2 (Homo sapiens), Q9UL42 (parent)
chain: MALALLEDWCRIMSVDEQKSLMVTGIPADFEEAEIQEVLQETLKSLGRYRLLGKIFRKQENANAVLLELLEDTDVSAIPSEVQGKGGVWKVIFKTPNQDTEFLERLNLFLEKEGQTVSGMFRALGQEGVSPATVPCISPELLAHLLGQAMAHAPQPLLPMRYRKLRVFSGSAVPAPEEESFEVWLEQATEIVKEWPVTEAEKKRWLAESLRGPALDLMHIVQADNPSISVEECLEAFKQVFGSLESRRTAQVRYLKTYQEEGEKVSAYVLRLETLLRRAVEKRAIPRRIADQVRLEQVMAGATLNQMLWCRLRELKDQGPPPSFLELMKVIREEEEEEASFENESIEEPEERDGYGRWNHEGDD
B7: Prolyl 4-hydroxylase subunit alpha-3 (Homo sapiens), Q7Z4N8 (parent)
chain: MGPGARLAALLAVLALGTGDPERAAARGDTFSALTSVARALAPERRLLGLLRRYLRGEEARLRDLTRFYDKVLSLHEDSTTPVANPLLAFTLIKRLQSDWRNVVHSLEASENIRALKDGYEKVEQDLPAFEDLEGAARALMRLQDVYMLNVKGLARGVFQRVTGSAITDLYSPKRLFSLTGDDCFQVGKVAYDMGDYYHAIPWLEEAVSLFRGSYGEWKTEDEASLEDALDHLAFAYFRAGNVSCALSLSREFLLYSPDNKRMARNVLKYERLLAESPNHVVAEAVIQRPNIPHLQTRDTYEGLCQTLGSQPTLYQIPSLYCSYETNSNAYLLLQPIRKEVIHLEPYIALYHDFVSDSEAQKIRELAEPWLQRSVVASGEKQLQVEYRISKSAWLKDTVDPKLVTLNHRIAALTGLDVRPPYAEYLQVVNYGIGGHYEPHFDHATSPSSPLYRMKSGNRVATFMIYLSSVEAGGATAFIYANLSVPVVRNAALFWWNLHRSGEGDSDTLHAGCPVLVGDKWVANKWIHEYGQEFRRPCSSSPED
partner: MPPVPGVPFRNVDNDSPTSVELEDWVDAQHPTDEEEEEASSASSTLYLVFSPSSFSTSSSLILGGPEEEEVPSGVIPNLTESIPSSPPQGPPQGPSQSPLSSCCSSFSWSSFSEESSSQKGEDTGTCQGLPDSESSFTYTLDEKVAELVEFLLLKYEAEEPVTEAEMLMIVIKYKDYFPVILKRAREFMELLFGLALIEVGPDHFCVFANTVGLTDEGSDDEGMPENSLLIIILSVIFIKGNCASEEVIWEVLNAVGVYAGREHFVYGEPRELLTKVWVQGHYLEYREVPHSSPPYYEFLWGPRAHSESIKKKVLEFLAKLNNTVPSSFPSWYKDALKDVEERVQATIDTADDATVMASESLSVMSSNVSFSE

The variants in the first test derive from B1. The settings on record: with acy1_human ACY1, Q03154.
As for E381D, the “effect of a mutation on the interaction” value was “with no effect”.

A further test covers variants of B2. As to conditions: with stmn2_human STMN2, Q93045.
In the case of P541S, the “effect of a mutation on the interaction” value is given as “with no effect”.

With S514R, the “effect of a mutation on the interaction” value was “with no effect”.

Another test covers variants of B3. The settings on record: with lin7a_human LIN7A.
Regarding S141Y, the “effect of a mutation on the interaction” value is “with no effect”.

In another test the parent is B4. The settings on record: with kanl1_human KANSL1, Q7Z3B3.
Take T273A: the “effect of a mutation on the interaction” value is “with no effect”.

As to P389A, the “effect of a mutation on the interaction” value was “with no effect”.

Another test covers variants of B5. The settings on record: with azin1_human AZIN1, O14977.
Sequence of azin1_human AZIN1, O14977 (O14977 whole entry): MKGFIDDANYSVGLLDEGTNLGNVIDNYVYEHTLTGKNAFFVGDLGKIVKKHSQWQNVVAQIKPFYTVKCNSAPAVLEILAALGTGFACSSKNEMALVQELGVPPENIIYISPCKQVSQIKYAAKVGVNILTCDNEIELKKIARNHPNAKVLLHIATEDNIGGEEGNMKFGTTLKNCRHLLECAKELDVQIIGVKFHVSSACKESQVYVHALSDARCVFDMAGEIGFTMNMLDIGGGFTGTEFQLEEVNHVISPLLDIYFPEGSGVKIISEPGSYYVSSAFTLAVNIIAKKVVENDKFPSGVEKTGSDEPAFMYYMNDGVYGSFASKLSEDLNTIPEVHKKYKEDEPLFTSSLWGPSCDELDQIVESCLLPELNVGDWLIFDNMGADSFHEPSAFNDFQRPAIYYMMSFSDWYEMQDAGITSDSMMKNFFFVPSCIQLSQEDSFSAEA
Regarding R193Q, the “effect of a mutation on the interaction” value was “with no effect”.

Take V174A: the “effect of a mutation on the interaction” value was “with no effect”.

The next test covers variants of B6. As to conditions: with sdcb1_human SDCBP.
On to E186K, for which the “effect of a mutation on the interaction” value is reported as “with no effect”.

Variants of B6 are the subject of another test. As to conditions: with psa1_human PSMA1, P25786.
Sequence of psa1_human PSMA1, P25786 (P25786 whole entry): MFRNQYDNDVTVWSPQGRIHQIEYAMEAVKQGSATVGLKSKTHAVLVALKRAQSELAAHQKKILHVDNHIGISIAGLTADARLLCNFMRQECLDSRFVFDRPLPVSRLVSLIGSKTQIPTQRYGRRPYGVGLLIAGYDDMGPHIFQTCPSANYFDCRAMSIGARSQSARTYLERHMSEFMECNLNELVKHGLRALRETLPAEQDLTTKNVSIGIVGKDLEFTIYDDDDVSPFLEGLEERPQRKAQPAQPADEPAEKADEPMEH
As to E186K, the “effect of a mutation on the interaction” value was “with no effect”.

Variants of B7 are the subject of a further test. As to conditions: with magc2_human MAGEC2, Q9UBF1.
Turning to S378L, the “effect of a mutation on the interaction” value is given as “disrupting interaction strength”.
